These results are taken from PMC9943673.

The target of one assay is TIN2 (UniProt Q9BSI4). Briefly: biotin-peptide pull-down from nuclear extract, MS. As to conditions: reference: unphosphorylated peptide (TRF2-CTRL); sites S410.
For assay [1], the target named is TRF2-CTRL peptide labelled at the N-terminus with carboxyfluorescein (FAM) (human). Briefly: fluorescence polarisation; fluorescence anisotropy; 3 nM FAM-peptide titrated with TIN2 to 500 nM; 50 mM NaCl, 50 mM phosphate buffer pH 7.0, 25 C. On the technique in general: Fluorescence polarisation rises when a labelled molecule tumbles more slowly, as on binding a larger partner.
Sequence of TRF2-CTRL peptide labelled at the N-terminus with carboxyfluorescein (FAM) (human) (Q15554 401-420): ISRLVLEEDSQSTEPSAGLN

In assay [2] the target is TRF2-pS410 peptide labelled at the N-terminus with carboxyfluorescein (FAM) (human). The description is as above.

Turning to “TRF2 (from UniProt Q15554) pS410 peptide”, the “binding against the reference” value with TIN2 is reported as “stronger”.

For the substance “purified human TIN2 (from UniProt Q9BSI4 1-451) (natural protein)”, the Kd (usually the concentration at which binding is half-saturated) in assay [1] was found to be 240 nM; in assay [2], 180 nM.
